This is an account of results in PMC6331805.

This data set deals with T1, NtcA (Synechocystis sp. PCC 6803) (UniProt P33779).
T1 sequence: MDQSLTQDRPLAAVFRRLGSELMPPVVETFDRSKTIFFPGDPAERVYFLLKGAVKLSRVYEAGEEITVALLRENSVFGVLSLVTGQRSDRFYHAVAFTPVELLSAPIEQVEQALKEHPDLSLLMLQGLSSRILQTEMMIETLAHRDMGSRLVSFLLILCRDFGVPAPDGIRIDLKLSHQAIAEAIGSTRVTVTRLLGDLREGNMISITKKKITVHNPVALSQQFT
The experiment in a line: EMSA. The note with it: Roche DIG Gel Shift kit buffer (composition and pH not stated), 2 ng DIG-labeled DNA, 15 min at room temperature, native 8% PAGE; 5 mM MgCl2 in 2-oxoglutarate ….

On to “TTTGAGCCTAACATTATCCTCCCGTTGCCTTTTTCACCACAGACTTGCCATGGGCGCAATACTCTGTTACATTTATTTACATAGACAACCCTCCCAGCTCGTAATTACAT (double strand) [scpB promoter fragment 110 bp]”, for which the binding result is recorded as “binds”.
In the case of “ACTCTGACGTACCCATTGACGGGGTAACTTACTCAAGCTAAAAGGTAAAGAATTGTAAACTAAGTTAATTATCCCAGGAAATCCCATGAG (double strand) [scpE promoter fragment 90 bp]” it was “binds”.
